As a reminder, the Kd is the free concentration of one partner at which half of the binding sites on the other are occupied at equilibrium, for simple one-to-one binding.

This passage reports Kd results from patent EP4410371A1 (Max-Planck-Gesellschaft zur Förderung der Wissenschaften …, dated 2024).

B1: VHH antibody Ma7F02 (VHH)
VHH: QVQLVESGGGLVQAGGSLRLSCTVSGSIDSLHTMGWFRQAPGKKRDFVAVVSWSGGNTYYPDYAKGRFTISRDNTKNTVYLQMNSLKPEDTAIYYCAAESGSGNYWKIWEHEFDSWGQGTQVTVSS
B2: VHH antibody Ma7A07 (VHH)
VHH: QVQLVESGGGLVQPGGSLRLSCAASGFTLGDYTLGWFRQAPGKQREGVSSIASSALSIYIADSVKGRFTISRDDAKNTIYLHMNNLKPEDTGVYYCARGVDSWRWVPSAMDLWGKGTLVTVSS
B3: VHH antibody Ma7B12 (VHH)
VHH: QVQLVESGGGLVQPGGSLRLSCAASGFTLGDYTLGWFRQAPGKQREGVSSIASSALSIYIADSVKGRFTISRDNAKNTVYLHMNNLKPEDTGVYYCARGIDNWRWVPSAMDLWGKGTQVTVSS
B4: VHH antibody Ma7A08 (VHH)
VHH: QVQLVESGGGLVQPGGSLTLSCAASGFTLGDYTLGWFRQAPGKQREGVSSIASSVLSVYIADSVKGRFTISRDDAKNTIYLHMNNLKPEDTGVYYCARGVDSWRWVPSAMDLWGKGTLVTVSS
B5: VHH antibody Ma7B03 (VHH)
VHH: QVQLVESGGGLVQPGGSLRLSCAASGFTLSNYYVGWFRQAPGKQREGVSSIGSSDLSIYIADSVKGRFTISRDNAKNTIYLHMNNLKPDDTGVYYCARGTDSWRWVPSAMDLWGKGTQVTVSS
B6: VHH antibody Ma8E03 (VHH)
VHH: QVQLVESGGGLVHPGGSLRLSCAASGSSLDHYVIGWFRQVPGKEREGVSCISRSGGSTNYADSVKGRFTVSRDNVKNMVYLQMNSLEPEDSAEYYCAAQRNLGNFCVLGWLEYDDWGQGTQVTVSS
B7: VHH antibody Ma8G02 (VHH)
VHH: QVQLVESGGGLVLPGGSLRLSCAASGSSLDHYVIGWFRQYPGKEREGVSCISRSGGSTNYADSVKGRFTVSRDNVKNMVYLQMNSLEPEDSAEYYCAAQRNLGNFCVLGWVEYDDWGQGTQVTVSS
B8: VHH antibody Ma7C02 (VHH)
VHH: QVQLVESGGGLVQAGGSLRLSCAASGRTFSDYAMGWFRQAAGKDRDFVAVITRSGDSTYYPDSTKGRFTISRDNAKNTMYLQMNSLKPEDTARYYCAATDPTNYWRIWEHEFDYWGQGTQVTVSS
B9: VHH antibody Ma7D06 (VHH)
VHH: QVQLVESGGGLVQAGGSLRLSCAASGSISGIDTMAWFRQIPGKDREFVAVIKWAAGSTWYPDFVKGRFTVSRDNAKNMVYLQMDSVKPEDTAIYYCAAAAGEKYYYRLFPYEYDYWGQGTQVTVSS
B10: VHH antibody Ma7C11 (VHH)
VHH: QVQLVESGGGLVRAGGSLRLSCAASGSISSVNGMGWFRQAPGKERLFVAQVSLLDSSTYYADSVKGRFTISRDDAKNTMYLQMNNVRPEETAVYYCAATKLRIGTAFSSEYDYWGQGTQVTVSS
B11: VHH antibody Ma8D07 (VHH)
VHH: QVQLVESGGGLVQPGGSLRLSCAASESIYKLNAMGWYRQAPGKELELVTTISSGGSTFYTDPVKGRFTISTDNAKNTVYLQMRSLKPEDTAMYYCAANPTYNHYSARGQGTQVTVSS
B12: VHH antibody Ma8D08 (VHH)
VHH: QVQLVESGGGFVQAGGSLRLSCAASESIYKLNAMGWYRQAPGKELELVTTISSGGSTFYTDPVKGRFTISTDNAKNTVYLQMRSLKPEDTAMYYCAANPTYNHYSARGQGTQVTVSS
B13: VHH antibody Ma8H03 (VHH)
VHH: QVQLVESGGGLVHPGGSLRLSCAASGSSLDHYVIGWFRQVPGKQREGISCISSGGSTNYADSVKGRFTVSRDNVKSTVYLQMNSLAPDDSAEYYCAAQRNLGNFCVLGWLEYDDWGQGTQVTVSS
B14: VHH antibody Ma8A05 (VHH)
VHH: QVQLVESGGGLVQPGGSLRLSCAASPASGFTLDLYTIAWFLQAPGKEREGVSAISLSDEITYYSDAVKGRFTISRDSAKNTVFLQMDRLKPEDTGVYYCAIGAFDFILKEADADYWGQGTQVTVSS
B15: VHH antibody Ma8D05 (VHH)
VHH: QVQLVESGGGLVQPGGSLRLSCAASPASGFTLDLYTIAWFLQAPGKEREGVSAISLSDEITYYSDTVKGRFTISRDSAKNTVFLQMDRLKPEDTGVYYCAIGAFDFILKEADADYWGQGTQVTVSS
B16: VHH antibody Ma7B01 (VHH)
VHH: QVQLVESGGGLVQAGDSLSLSCAASGRTFSNYAMGWFRQAPGKERHFVAVINQIGDSTWYPDFAKGRFTISRDNAKNTLYLQMNSLKPEDTAVYYCAATDPRSYWRIWPHEYGYWGQGTQVTVSS
B17: VHH antibody Ma7E01 (VHH)
VHH: QVQLVESGGGSVQAGDSLSLSCVASERTFSNYAMGWFRQAPGKERHFVAVINPIGEETWYPDFAKGRFTISRDNAKNTLYLQMNSLKPEDTAVYYCAATDPRSYWRIWEHEFDYWGQGTQVTVSS

The first assay deals with T1, Cys-HLA used for Octet assays following biotinylation at the N-terminal ectopic cysteine (Staphylococcus aureus, UniProt P09616 27-319). Kind of assay: BLI (Octet), biotinylated HLA on streptavidin sensors.
B1 showed an equilibrium dissociation constant (Kd) of approximately 0.05 nM.

The next assay deals with T1, Cys-HLA used for Octet assays following ….
Assay: not given
With B1, the Kd was determined as 0.04 nM. That is a picomolar value.

The molecule B2 gave a Kd not above 0.01 nM.

Turning to B3, the dissociation constant (Kd) is not above 0.01 nM.

For the molecule B4, the Kd was not above 0.01 nM.

Molecule B5 displayed a Kd not above 0.01 nM.

For B6, the Kd was not above 0.01 nM.

Consider B7, for which the equilibrium dissociation constant (Kd) was not above 0.01 nM.

B8: the Kd was 0.09 nM.

Turning to B9, the affinity, expressed as Kd, was 0.06 nM. This Kd lies about 1.5-fold lower than the previous one.

In turn, B10 gave a Kd of 0.3 nM. This Kd lies about 5-fold higher than the previous one.

In turn, B11 yielded a Kd of 0.8 nM.

Molecule B12 registered a dissociation constant Kd of 1 nM.

B13 yielded a Kd not above 0.01 nM.

B14 registered a Kd of 0.6 nM.

Molecule B15 yielded a Kd of 1 nM. Compared with the last molecule, the Kd is about 1.7-fold higher.

With B16, binding was put at a Kd of 0.05 nM.

B17 displayed a dissociation constant Kd not above 0.01 nM.
